We go through 2 sequences from US20230089604A1, “ANTI-ADSORPTION SOLUTION” (Universiteit Gent, priority 2019, published 2023).

Holding throughout (assay type): physicochemical
The nature of series [1]: Proof of concept (pivotal experiment): D-optimal design for the injection solvent and vial coating that minimize glass adsorption, UHPLC-MS/MS peak area.
Description: 36 model peptides were selected for evaluation of the anti-adsorption diluent general functionality. The most suitable solvent composition and need of vial coating with the anti-adsorption diluent was evaluated via a D-optimal design model generated by Modde software (Umetrics, Umea, Sweden).
The peptides were analyzed at the concentration specified in Table 5. For model optimization, the analysis wizard was used. […] In the next step, the non-significant model terms (i.e. those not contributing to a higher R^2 and/or Q^2) were removed via the coefficient plot. Outliers in the residuals normal probability plot and the observed versus predicted plot were removed. The optimum was calculated using the optimizer tool of the Modde software.
Using the same UHPLC-MS/MS apparatus as previously described in the proof of principle, the column compartment was kept at 60° C. and the sample compartment at 10° C. respectively. […] The peptides analyzed using the HILIC amide or C18 column system are mentioned in Table 7. […]
To further investigate the wide applicability of this novel anti-adsorption diluent, 36 peptides were selected. […] The necessity of prior coating the vial with anti-adsorption diluent was also evaluated in the same D-optimal design model. Prior to this experiment, the LC-MS suitability of the anti-adsorption diluent was evaluated by injecting the anti-adsorption diluent as such. […]
Series [2] can be described thus: Anti-adsorption diluent applicability for polypropylene inserts. As to conditions: 100 ng/mL, polypropylene insert, anti-adsorption diluent Source 1. The protocol: Anti-adsorption diluent applicability for polypropylene inserts. The functionality of the anti-adsorption diluent Source 1 in polypropylene inserts was evaluated via the peptide […] (100 ng/mL). The peptide was analyzed in (I) a glass insert with 50/50 V/V water/acetonitrile+0.1% m/V formic acid, (II) a polypropylene insert with 50/50 V/V water/acetonitrile+0.1% m/V formic acid, (III) a glass insert with anti-adsorption diluent Source 1, and (IV) a polypropylene insert with anti-adsorption diluent. The UHPLC-MS/MS method provided in the proof of principle experiment was applied. The experiment was performed in triplicate.
Previous experiments were all conducted using glass inserts. Plastic vials and inserts are also widely used for the chromatography of peptides. Therefore, the applicability of the anti-adsorption diluent was evaluated using a polypropylene insert. The peptide […] (100 ng/mL) was either analyzed using a glass or polypropylene insert with or without anti-adsorption diluent (see FIG. 11).

The nature of series [3]: Peptide stability by HPLC-PDA (0 h vs 3 h). To be noted: 1 mg/mL, 3 h at 20° C. On the procedure:
The 3 h peptide stability was evaluated by high performance liquid chromatography equipped with a photo diode array detector.
The peptide stability of peptide […] (SEQ ID No: 1) was evaluated with HPLC-PDA and the Vydac Everest C18 column. The analytical solution (1 mg/mL) in acetonitrile/water (V/V)+0.1% m/V formic acid (i.e. matching solvent composition as the anti-adsorption diluent without hydrolysate components) was chromatographed with the gradient provided in Table 3. Analysis was performed with a Waters Alliance 2695 HPLC with a Waters 2695 Separations Module, combined with a Flow Through Needle, and a Waters 2996 Photodiode Array Detector with Empower 2 software for data acquisition (Waters, Milford, Mass., USA).
The peptide was injected at 0 h and 3 h.

The nature of series [4]: Proof of principle (pilot experiment): peptide recovery over time in uncoated glass vial inserts, UHPLC-MS/MS. As to conditions: anti-adsorption diluent Source 1, 100 ng/mL, glass vial insert. On the procedure:
The peptide with amino acid sequence […] (SEQ ID No: 1) was stored in uncoated (U)HPLC vial inserts at a concentration of 100 ng/mL in 2 different solvents for a total of approximately 2 h. […] The vials were stored in the UHPLC autosampler compartment during analysis and at 0 min a vial containing solvent 1 and 100 ng/mL peptide was injected onto the UHPLC-MS/MS to serve as reference. The peptide recovery was calculated by dividing the peptide peak area of each time point and condition by the peptide peak area of sample 0 min in solvent 1. Appropriate blank samples were first subjected to the UHPLC-MS/MS for evaluation of interfering substances. This experiment was performed in uniplicate.
UHPLC-MS/MS of peptide […] was conducted with an Acquity H-class quaternary solvent manager, connected to an Acquity Xevo TQ-S triple quadrupole mass spectrometer (Waters, Milford, Mass., USA). The column compartment was kept at 45° C. and the sample compartment at 20° C. Mobile phase A consisted of water/acetonitrile/dimethylsulfoxide 90/5/5 V/V/V supplemented with 0.1% m/V formic acid and mobile phase B consisted of water/acetonitrile/dimethylsulfoxide 5/90/5 V/V/V supplemented with 0.1% m/V formic acid. Chromatography was performed with an Acquity UHPLC BEH300 C18 column (2.1×100 mm, 1.7 μm particle size) (Waters) protected with a suitable guard column. […]

Series [5] can be described thus: Functional evaluation of anti-adsorption diluent from 3 sources (consecutive transfer to 5 glass inserts). As to conditions: 100 ng/mL in 50/50 V/V water/acetonitrile + 0.1% m/V formic acid. The protocol:
Functional evaluation of anti-adsorption diluent from 3 sources. The functionality of anti-adsorption diluent Source 1, Source 2, and Source 3 was evaluated via the peptide […] (SEQ ID No. 1). The peptide was diluted in either solvent (50/50 V/V water/acetonitrile supplemented with 0.1% m/V formic acid) or in 1 of the 3 anti-adsorption diluent sources to a peptide concentration of 100 ng/mL. The solution was either transferred to an insert and immediately analyzed via UHPLC-MS/MS or repeatedly transferred to inserts (5 inserts in total), with analysis of the 5th insert. UHPLC-MS/MS was carried out as previously discussed in the proof of principle (pilot experiment)-section. To prevent peptide degradation, each sample was prepared immediately prior to injection. Per condition 3 replicates were analyzed.
The pilot and pivotal experiments were carried out using anti-adsorption diluent originating from Source 1. Since Bovine Serum Albumin can differ amongst suppliers, anti-adsorption diluent was prepared originating from 3 sources, referred to as Source 1, Source 2, and Source 3. […] (100 ng/mL analytical concentration) was evaluated and (II) the peptide solution was repeatedly transferred from one insert to another (5 inserts in total) with subsequent analysis of the 5th insert. […]

As for “EQLSFTSIGILQLLTIGTRSCWFFYCRY (Q49) [Peptide Q49]”, the Peptide peak area in series [1] (1 nM with anti-adsorption diluent Source 1, glass vial) is given as 16772.4; in series [1] (1 nM without anti-adsorption diluent, glass vial), 1363.8.

“MFPTIPLSRLFDNAMLRAH (Pilot peptide) [pilot experiment peptide]”: the “Increase of peptide peak area with anti-adsorption diluent compared to without” value in series [2] is “approximately 30%”. Also, the “Additional peaks after 3 h incubation (0.5% reporting threshold)” value in series [3] is on record as “No additional peaks”. For the same sequence, the “Glass adsorption of the peptide when using the anti-adsorption diluent” value in series [4] is recorded as “completely abolished”. In addition, the “Peptide peak area after transfer to 5 inserts, as % of peak area without transfer” value in series [5] was “approximately 10%”.
